Test results taken from patent publication EP4578875A1 (Ying Mai de Medical Technology (Guangdong) Co., Ltd., dated 2025).

Molecular target: T1, recombinant human CD3 Epsilon protein (KACTUS) (human, UniProt P07766 23-126)
T1 construct: Bought protein
Assay: ELISA, plate coated with 1 ug/ml recombinant human CD3 epsilon

T1 sequence (P07766 23-126): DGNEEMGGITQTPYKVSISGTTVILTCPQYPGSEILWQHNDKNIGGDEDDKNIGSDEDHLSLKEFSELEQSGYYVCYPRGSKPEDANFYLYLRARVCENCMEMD

binding result: binds
B1: anti-Her2/anti-CD3 bispecific antibody comprising the anti-CD3 antibody mutant (mutation site VH-Y61C) (bispecific antibody)
VH: EVQLVESGGGLVQPGGSLRLSCAASGFTFSTYAMNWVRQAPGKGLEWVGRIRSKYNNYATCYADSVKDRFTISRDDSKNSLYLQMNSLKTEDTAVYYCARHGNFGNSYVSWFAYWGQGTLVTVSS
VL: QTVVTQEPSLTVSPGGTVTLTCRSSTGAVTTSNYANWVQQKPGQAPRGLIGGTNKRAPGVPARFSGSLLGDKAALTLLGAQPEDEAEYFCALWYSNLWVFGGGTKLTVL
scFv: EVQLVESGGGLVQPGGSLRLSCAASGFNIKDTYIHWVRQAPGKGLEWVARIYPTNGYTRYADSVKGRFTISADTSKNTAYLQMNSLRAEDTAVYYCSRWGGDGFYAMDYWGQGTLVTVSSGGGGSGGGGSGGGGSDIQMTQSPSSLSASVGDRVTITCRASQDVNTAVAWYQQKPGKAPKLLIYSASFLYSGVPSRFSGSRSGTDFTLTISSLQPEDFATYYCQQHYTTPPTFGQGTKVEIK
notes: also called CD3-Her2 Mutation; CD3-HER2 Mutation
